The test addresses dog angiotensin-converting enzyme 2 (dACE2) ectodomain, 6xHis (dog). The test can be described thus: SPR. Background: Surface plasmon resonance follows binding to a sensor surface in real time, without labels.

For “SARS-CoV-2 spike (S) protein receptor binding domain (RBD), wild type (from UniProt P0DTC2) (domain or fragment)”, the dissociation constant Kd was 0.123 µM.

As a reminder, the Kd is the free concentration of one partner at which half of the binding sites on the other are occupied at equilibrium, for simple one-to-one binding. Read a low Kd as a tighter complex.

(Values after paper PMC8263772.)
